Reference: patent publication US20140243272A1 (ALPHABETA, published 2014)

B1: cellulose-bound decamer of G (peptide)
peptide: GGGGGGGGGG
notes: also called G counterpart
B2: cellulose-bound decamer of Y (peptide)
peptide: YYYYYYYYYY
notes: also called stretch of Y
B3: cellulose-bound decamer of M (peptide)
peptide: MMMMMMMMMM
notes: also called stretch of M
B5: cellulose-bound decamer of W (peptide)
peptide: WWWWWWWWWW
notes: also called W counterpart
B6: cellulose-bound decamer of I (peptide)
peptide: IIIIIIIIII
notes: also called stretch of I
B7: LLLLLLLLLL, poly-leucine 10-mer peptide, spot 17 (peptide)
peptide: LLLLLLLLLL
notes: also called decamer of L
B8: cellulose-bound decamer of P (peptide)
peptide: PPPPPPPPPP
notes: also called P counterpart
B9: cellulose-bound decamer of F (peptide)
peptide: FFFFFFFFFF
notes: also called stretch of F
B12: AAAAAAAAAA, poly-alanine 10-mer peptide, spot 18 (peptide)
peptide: AAAAAAAAAA
notes: also called decamer of A

What was measured:
[1] = target: T1, ER-luminal part of the human Bri protein (human, UniProt Q9Y287 90-236, limits assumed); assay: cellulose-bound decamer SPOT membrane, control
T1 construct: domain: ER-luminal part
T1 sequence (looked up): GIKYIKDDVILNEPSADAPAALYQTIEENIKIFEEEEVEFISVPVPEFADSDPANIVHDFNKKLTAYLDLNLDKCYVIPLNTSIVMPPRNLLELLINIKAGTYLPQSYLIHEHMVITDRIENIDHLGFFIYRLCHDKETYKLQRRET
Description: (§1) After blocking with 2% BSA for one hour and washing with T-TBS 4×1 h, the membranes were incubated with HRP-conjugated S-protein (Novagen, Madison, Wis.) diluted 1:5000.

[2] = target: T2, KRLLLLLLLL, Leu-substituted version of SP-C 11-20, spot 8 (human); assay: peptide SPOT membrane, spot 8
T2 peptide: KRLLLLLLLL
Description: (§2) SPOT membranes (Frank R, J Immunol Meth, 267:13-26, 2002), containing 10-residue fragments derived from SP-C(SP-C^I23V) were purchased from Sigma Genosys (Cambridge, England). […] The membranes were then blocked with 2% BSA in TBS for one hour. After washing with T-TBS 4×1 h, the membranes were incubated with HRP-conjugated S-protein (Novagen, Madison, Wis.) diluted 1:5000 in T-TBS containing 2% BSA. The membranes were then washed again with T-TBS 4×1 h and binding was visualized by ECL according to the manufacturer's instructions.

[3] = target: T3, RLLLLLLLLL, Leu-substituted version of SP-C 12-21, spot 11 (human); assay: peptide SPOT membrane, spot 11
T3 peptide: RLLLLLLLLL
Description: as §2

[4] = target: T4, KRAAAAAAAA, Ala-substituted version of SP-C 11-20, spot 9 (human); assay: peptide SPOT membrane, S-protein-HRP, ECL
T4 peptide: KRAAAAAAAA
Description: as §2

[5] = target: T5, RAAAAAAAAA, Ala-substituted version of SP-C 12-21, spot 12 (human); assay: peptide SPOT membrane, S-protein-HRP, ECL
T5 peptide: RAAAAAAAAA
Description: as §2

[6] = target: B12; assay: peptide SPOT membrane, S-protein-HRP, ECL
Description: as §2

[7] = target: B5; assay: cellulose-bound decamer SPOT membrane, S-protein-HRP, ECL
Description: as §1

[8] = target: B1; assay: as above
Description: as §1

[9] = target: B8; assay: as above
Description: as §1

[10] = target: B7; assay: cellulose-bound decamer SPOT membrane, 1 µg/ml protein, S-protein-HRP, ECL
Description: as §1

[11] = target: B6; assay: as above
Description: as §1

[12] = target: B9; assay: as above
Description: as §1

[13] = target: B3; assay: as above
Description: as §1

[14] = target: B2; assay: as above
Description: as §1

[15] = target: B7; assay: cellulose-bound decamer SPOT membrane
Description: as §1

[16] = target: B6; assay: cellulose-bound decamer SPOT membrane
Description: as §1

[17] = target: B9; assay: cellulose-bound decamer SPOT membrane
Description: as §1

[18] = target: B3; assay: cellulose-bound decamer SPOT membrane
Description: as §1

[19] = target: B2; assay: cellulose-bound decamer SPOT membrane
Description: as §1

[20] = target: T6, LVVVVIVGAL (positions 22-31 in SP-C^I23V), spots 21 and 23 (human); assay: peptide SPOT membrane, S-protein-HRP, ECL
T6 construct: also called spot 21; spot 23
T6 peptide: LVVVVIVGAL
Description: as §2

[21] = target: B7; assay: cellulose-bound decamer SPOT membrane, control
Description: as §1

[22] = target: B12; assay: cellulose-bound decamer SPOT membrane, control
Description: as §1

[23] = target: B6; assay: cellulose-bound decamer SPOT membrane, control
Description: as §1

[24] = target: B9; assay: cellulose-bound decamer SPOT membrane, control
Description: as §1

[25] = target: B3; assay: cellulose-bound decamer SPOT membrane, control
Description: as §1

[26] = target: B2; assay: cellulose-bound decamer SPOT membrane, control
Description: as §1

[27] = target: B5; assay: cellulose-bound decamer SPOT membrane, control
Description: as §1

[28] = target: B1; assay: cellulose-bound decamer SPOT membrane, control
Description: as §1

[29] = target: B8; assay: cellulose-bound decamer SPOT membrane, control
Description: as §1

B1: no binding [1].

B2: no binding [1].

B3: no binding [1].

B4: S-tagged recombinant human CTproSP-C (proSP-C^59-197) (other)
chain: GSGMKETAAAKFERQHMDSPDLGTDDDDKAMAHMSQKHTEMVLEMSIGAPEAQQRLALSEHLVTTATFSIGSTGLVVYDYQQLLIAYKPAPGTCCYIMKIAPESIPSLEALTRKVHNFQMECSLQAKPAVPTSKLGQAEGRDAGSAPSGGDPAFLGMAVSTLCGEVPLYYI
notes: SEC and ESI-MS show mainly trimers and oligomers of trimers; also called CTC; C-terminal domain of lung surfactant protein C precursor
B4: binds [2]; binds [3]; no binding (tested: 1 µg/ml) [4]. B4: no binding (tested: 1 µg/ml) [5]; no binding (tested: 1 µg/ml) [6]; no binding (tested: 1 µg/ml) [7]. B4: no binding (tested: 1 µg/ml) [8]; no binding (tested: 1 µg/ml) [9]; binds [10]. B4: binds [11]; binds [12]; binds [13]. B4: binds [14].

B5: no binding [1].

B6: no binding [1].

B7: no binding [1].

B8: no binding [1].

B9: no binding [1].

B10: Recombinant human CTproSP-CBrichos (human proSP-C^94-197), S-tagged (other)
chain: FSIGSTGLVVYDYQQLLIAYKPAPGTCCYIMKIAPESIPSLEALNRKVHNFQMECSLQAKPAVPTSKLGQAEGRDAGSAPSGGDPAFLGMAVNTLCGEVPLYYI
notes: also called Brichos domain of human CTproSP-C; Brichos region; not shown: S-tag and vector residues from pET-32c left after thrombin cleavage
B10: binds [15]; binds [16]; binds [17]. B10: binds [18]; binds [19].

B11: Recombinant human CTproSP-C^L188Q, S-tagged (other)
chain: HMSQKHTEMVLEMSIGAPEAQQRLALSEHLVTTATFSIGSTGLVVYDYQQLLIAYKPAPGTCCYIMKIAPESIPSLEALNRKVHNFQMECSLQAKPAVPTSKLGQAEGRDAGSAPSGGDPAFLGMAVNTQCGEVPLYYI
notes: also called mutant human CTproSP-C^L188Q; not shown: S-tag left after thrombin cleavage
B11: no binding (tested: 1 µg/ml) [20]; no binding [21]; no binding [22]. B11: no binding [23]; no binding [24]; no binding [25]. B11: no binding [26]; no binding [27]; no binding [28]. B11: no binding [29].

B12: no binding [1].
